Here are results for 4 molecules from publication PMC2847487.

Data set [1] concerns the target C-terminal myc-tagged sortilin (UniProt Q99523). Nature of the data set: co-IP.
In data set [2] the target is triple-site mutant proNGF (mouse, cleavage-resistant) (mouse). In words: crystal structure.
In data set [3] the target is sortilin extracellular region with C-terminal biotinylation acceptor peptide, biotinylated (human) (human) (UniProt Q99523). Nature of the data set: SPR.
Data set [4] can be described thus: size exclusion chromatography of p75NTR alone. The note with it: glycan lost; control: wild-type glycosylated p75NTR.

Consider “N-terminal HA tagged-proNGF (from UniProt P01139 122-241) (ligand)”, for which, in data set [1], the fold increase of the proNGF:sortilin interaction with calcium over EDTA turned out to be 2.3 fold.

The molecule “p75NTR extracellular portion, Asn32 to Asp glycosylation site mutant (rat) (from UniProt P07174 29-190) (receptor)” yielded a stoichiometry N (p75NTR per proNGF chain (2:2)) in data set [2] of 1.

“proNGF/p75NTR complex (preformed) (from UniProt P07174 29-190)” displayed a Kd in data set [3] of 140 nM.

B1: p75NTR: Asn32 to Asp (protein)
parent chain: MRRAGAACSAMDRLRLLLLLILGVSSGGAKETCSTGLYTHSGECCKACNLGEGVAQPCGANQTVCEPCLDNVTFSDVVSATEPCKPCTECLGLQSMSAPCVEADDAVCRCAYGYYQDEETGHCEACSVCEVGSGLVFSCQDKQNTVCEECPEGTYSDEANHVDPCLPCTVCEDTERQLRECTPWADAECEEIPGRWIPRSTPPEGSDSTAPSTQEPEVPPEQDLVPSTVADMVTTVMGSSQPVVTRGTTDNLIPVYCSILAAVVVGLVAYIAFKRWNSCKQNKQGANSRPVNQTPPPEGEKLHSDSGISVDSQSLHDQQTHTQTASGQALKGDGNLYSSLPLTKREEVEKLLNGDTWRHLAGELGYQPEHIDSFTHEACPVRALLASWGAQDSATLDALLAALRRIQRADIVESLCSESTATSPV
Take B1: the oligomerisation entry in data set [4] is recorded as “no change”.

As a reminder, the Kd is the constant that tells how readily two partners part at equilibrium. Lower therefore signals a tighter complex.
